According to US20150238603A1:

How the values were obtained:
Human CD38 (human) [1] = target: Human CD38 (human) (UniProt P28907); assay: flow cytometry, QuantiBRITE system, NCI-H929 cells
Human CD38 (human) [2] = target: Human CD38 (human) (UniProt P28907); assay: flow cytometry, QuantiBRITE system, RPMI8226 cells
Human CD38 (human) [3] = target: Human CD38 (human) (UniProt P28907); assay: flow cytometry, QuantiBRITE system, LP1 cells

Chain of UniProt P28907 (P28907 whole entry): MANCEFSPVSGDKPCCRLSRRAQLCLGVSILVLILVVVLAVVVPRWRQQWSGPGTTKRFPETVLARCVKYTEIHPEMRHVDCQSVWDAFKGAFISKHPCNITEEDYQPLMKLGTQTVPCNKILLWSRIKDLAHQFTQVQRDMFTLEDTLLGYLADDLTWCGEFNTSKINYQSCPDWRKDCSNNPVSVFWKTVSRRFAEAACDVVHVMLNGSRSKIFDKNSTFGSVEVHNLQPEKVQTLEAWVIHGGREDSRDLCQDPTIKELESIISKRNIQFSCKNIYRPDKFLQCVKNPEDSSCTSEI

Substance “QuantiBRITE CD38-PE antibody (Becton Dickinson GmbH, Clone HB7, CAT #342371)” has an Antibodies Bound Per Cell (ABC) (antibodies bound per cell) (Human CD38 (human) [1]) of 195000, an Antibodies Bound Per Cell (ABC) (antibodies bound per cell) (Human CD38 (human) [2]) of over 677000 and an Antibodies Bound Per Cell (ABC) (antibodies bound per cell) (Human CD38 (human) [3]) of 125000.
